Where a chain is given by its changes, count along the chain named. Names may count otherwise.
What was measured:
[1] = biological target: YRELRLLK after cleavage to N-terminal arginine (RELRLLK); assay: on-chip single-molecule dynamic sequencing with PS610, PS961, PS621 and aminopeptidases; median of the RS mean PD distribution; panel YREL
[2] = biological target: YRELRLLK after cleavage to N-terminal arginine (RELRLLK); assay: single-molecule dynamic sequencing on chip
[3] = biological target: T1, HA peptide (Octet assay of PS621 variants); assay: Octet (BLI), 30 C
T1 sequence (peptide): HAKLDEESILKQK

[4] = biological target: YA peptide (Octet assay of PS557 variants); assay: Octet (BLI), peptide on sensor, response after 200 s association
[5] = biological target: IA peptide (Octet assay of PS557 variants); assay: as above
[6] = biological target: FA peptide (Octet assay of PS557 variants); assay: as above
[7] = biological target: WA peptide (Octet assay of PS557 variants); assay: as above
[8] = biological target: MA peptide (Octet assay of PS557 variants); assay: as above
[9] = biological target: N-terminal alanine peptide (SNAP display selection); assay: SNAP display, 4 rounds of selection on alanine peptide; NGS abundance in round 4 / naive library
[10] = biological target: IA peptide (Octet assay of PS557 variants); assay: Octet (BLI), peptide on sensor, response after 200 s association; second PS829 row
[11] = biological target: FA peptide (Octet assay of PS557 variants); assay: as above
[12] = biological target: MA peptide (Octet assay of PS557 variants); assay: as above

B1: PS621 (protein)
chain: MHSKFSHAGRICGAKFKVGEPIYRCKECSFDDTCVLCVNCFNPKDHTGHHVYTTICTEFNNGICDCGDKEAWNHTLFCKAEEG
- median RS mean PD [1]: 0.19 s
- median interpulse duration (IPD) [2]: 10.1 s

B2: PS1103 (designed binder)
chain: B1 chain with D32Y
- Octet response [3]: 0.1

B3: PS1101 (designed binder)
chain: B1 chain with G19R
- Octet response [3]: 0.1

B4: PS1112 (designed binder)
chain: B1 chain with E70T
- Octet response [3]: 0.1

B5: PS1111 (designed binder)
chain: B1 chain with E70S
- Octet response [3]: 0.1

B6: PS1116 (designed binder)
chain: B1 chain with G48Y
- Octet response [3]: 0.1

B7: PS796 (designed binder)
chain: MPTAASATESAIEDTPAPARPEVDGRTKPKRQPRYHVVLWDDDDHTYQYVVVMLQSLFGHPPERGYRLAKEMDTQGRVIVLTTTREHAELKRDQIHAFGYDRLLARSKGSMKASIEAEE
- Octet response [4]: 1.23 nm
- Octet response [5]: 11.6 nm
- Octet response [6]: 1.37 nm
- Octet response [7]: 0.761 nm
- Octet response [8]: 8.42 nm

B8: PS801/PS814 (designed binder)
chain: B7 chain with D41N, E63K, M72V
- Octet response [4]: 0.054 nm
- Octet response [5]: 9.02 nm
- Octet response [6]: 0.00662 nm
- Octet response [7]: 0.0148 nm
- Octet response [8]: 1.75 nm

B9: PS808 (designed binder)
chain: B7 chain with D41N, Q55R, M72V
- Octet response [4]: 0.0539 nm
- Octet response [5]: 9.27 nm
- Octet response [6]: 0.00233 nm
- Octet response [7]: 0.00243 nm
- Octet response [8]: 1.88 nm

B10: PS557 mutant N41D, E63S, L68M, V72M, R106H (SNAP display clone) (designed binder, not shown: large carriers; small tags and cut ends)
chain: B7 chain with E63S, L68M, R106H
modifications: In the selection the protein carried an N-terminal SNAP tag covalently bound to benzylguanine on its own coding DNA; this is not in the letters.
- Enrichment [9]: 124

B11: PS557 mutant N41D, Q55R, H60I, V72M (SNAP display clone) (designed binder, not shown: large carriers; small tags and cut ends)
chain: B7 chain with Q55R, H60I
modifications: In the selection the protein carried an N-terminal SNAP tag covalently bound to benzylguanine on its own coding DNA; this is not in the letters.
- Enrichment [9]: 320

B12: PS557 mutant N41D, Q55R, E63A, V72M, Y100R (SNAP display clone) (designed binder, not shown: large carriers; small tags and cut ends)
chain: B7 chain with Q55R, E63A, Y100R
modifications: In the selection the protein carried an N-terminal SNAP tag covalently bound to benzylguanine on its own coding DNA; this is not in the letters.
- Enrichment [9]: 154

B13: PS809 (designed binder)
chain: B7 chain with D41N
- Octet response [4]: 0.0027 nm
- Octet response [5]: 8.52 nm
- Octet response [6]: 0.0032 nm
- Octet response [7]: 0.0117 nm
- Octet response [8]: 2.23 nm

B14: PS830 (designed binder)
chain: B7 chain with P62R, E63K, Q75L
- Octet response [5]: 6.51 nm
- Octet response [6]: 0.0339 nm
- Octet response [8]: 2.16 nm

B15: PS557 mutant N41D, Q55R, E63S, L68M, V72M, Y100R (SNAP display clone) (designed binder, not shown: large carriers; small tags and cut ends)
chain: B7 chain with Q55R, E63S, L68M, Y100R
modifications: In the selection the protein carried an N-terminal SNAP tag covalently bound to benzylguanine on its own coding DNA; this is not in the letters.
- Enrichment [9]: 166

B16: PS831 (designed binder)
chain: B7 chain with D41N, P62R, E63K, Q75L
- Octet response [5]: 10.5 nm
- Octet response [6]: 0.755 nm
- Octet response [8]: 4.86 nm

B17: PS819 (designed binder)
chain: B7 chain with E63K
- Octet response [5]: 9.06 nm
- Octet response [8]: 3.75 nm

B18: PS557 mutant N41D, Q55R, E63W, V72M, R106H (SNAP display clone) (designed binder, not shown: large carriers; small tags and cut ends)
chain: B7 chain with Q55R, E63W, R106H
modifications: In the selection the protein carried an N-terminal SNAP tag covalently bound to benzylguanine on its own coding DNA; this is not in the letters.
- Enrichment [9]: 133

B19: PS557 mutant N41D, Q55R, P62Y, E63T, V72M, Y100R (SNAP display clone) (designed binder, part only)
chain: B7 chain with Q55R, P62Y, E63T, Y100R
modifications: N-terminal SNAP tag
- Enrichment [9]: 158

B20: PS847 (designed binder)
chain: B7 chain with Q55R
- Octet response [4]: 0.0607 nm
- Octet response [5]: 7.77 nm
- Octet response [6]: 0.059 nm
- Octet response [7]: 0.0098 nm
- Octet response [8]: 3.23 nm

B21: PS828 (designed binder)
chain: B7 chain with P62R, M72V, Q75L
- Octet response [5]: 5.32 nm
- Octet response [6]: 0.583 nm
- Octet response [8]: 1.7 nm

B22: PS798 (designed binder)
chain: B7 chain with D41N, Q75L
- Octet response [5]: 12.7 nm
- Octet response [6]: 1.41 nm
- Octet response [8]: 9.37 nm

B23: PS829 (designed binder)
chain: B7 chain with P62R, Q75L
- Octet response [10]: 8.85 nm
- Octet response [11]: 1.18 nm
- Octet response [12]: 7.86 nm
- Octet response [4]: 0.749 nm
- Octet response [5]: 7.51 nm
- Octet response [6]: 0.797 nm
- Octet response [7]: 0.625 nm
- Octet response [8]: 4.7 nm

B24: PS838 (designed binder)
chain: B7 chain with P62R
- Octet response [4]: 0.59 nm
- Octet response [5]: 11.2 nm
- Octet response [6]: 0.377 nm
- Octet response [7]: 0.0581 nm
- Octet response [8]: 8.09 nm

B25: PS797 (designed binder)
chain: B7 chain with Q75L
- Octet response [5]: 11.6 nm
- Octet response [6]: 0.202 nm
- Octet response [8]: 8.71 nm

From patent US20240272170A1
